In article PMC9976893, “Dynamic states of eIF6 and SDS variants modulate interactions with uL14 of the 60S ribosomal subunit” (Nucleic Acids Research, 2023):

B1: uL14 peptide (aa 121-140) with S138 to A substitution (peptide)
peptide: VAKECADLWPRIASNAGAIA
notes: also called site-specific mutant peptide S138
B2: uL14 peptide (aa 121-140) with alanine substitution of R131 (peptide)
peptide: VAKECADLWPAIASNAGSIA
notes: also called site-specific mutant peptide R131
B3: uL14 peptide (aa 121-140) with alanine substitution of N135 (peptide)
peptide: VAKECADLWPRIASAAGSIA
notes: also called site-specific mutant peptide N135
B4: uL14 peptide (aa 121-140) with alanine substitution of D127 (peptide)
peptide: VAKECAALWPRIASNAGSIA
notes: also called site-specific mutant peptide D127

Target: recombinant full-length human eIF6 (human, UniProt P56537 1-245)
Assay: SPR; eIF6 immobilised on a CM5 chip by NHS/EDC chemistry (4913 RU); peptides injected at 0-500 μM (1:2 dilutions) in 20 mM HEPES pH 7.4, 150 mM NaCl, 0.01% BSA, 0.002% Tween 20; 25 μl/min; BIAcore S200; profiles did not obey a 1:1 model
Conditions: both partners purified

Binder | percent reduction of binding against the uL14-WT peptide at 0.5 mM
B1 | ~50%
B2 | ~50%
B3 | ~50%
B4 | ~50%
